Experimental data taken from US20230235013A1 (MABSOLVE, published 2023).

B1: anti-CD20 (rituximab) human IgG1 wild-type reference (antibody)
heavy: not shown
light: QIVLSQSPAILSASPGEKVTMTCRASSSVSYIHWFQQKPGSSPKPWIYATSNLASGVPVRFSGSGSGTSYSLTISRVEAEDAATYYCQQWTSNPPTFGGGTKLEIKRTVAAPSVFIFPPSDEQLKSGTASVVCLLNNFYPREAKVQWKVDNALQSGNSQESVTEQDSKDSTYSLSSTLTLSKADYEKHKVYACEVTHQGLSSPVTKSFNRGEC
notes: 2-1 and 10.0 are separate lots from HEK293; also called 2-1; 10.0
B2: anti-CD20 human IgG1 L234A/L235A/P329G (LALAPG reference) (antibody)
heavy: not shown
light: QIVLSQSPAILSASPGEKVTMTCRASSSVSYIHWFQQKPGSSPKPWIYATSNLASGVPVRFSGSGSGTSYSLTISRVEAEDAATYYCQQWTSNPPTFGGGTKLEIKRTVAAPSVFIFPPSDEQLKSGTASVVCLLNNFYPREAKVQWKVDNALQSGNSQESVTEQDSKDSTYSLSSTLTLSKADYEKHKVYACEVTHQGLSSPVTKSFNRGEC
notes: also called 2-66
B3: anti-CD20 human IgG1 L234Q/L235S/G236R (antibody)
heavy: QVQLQQPGAELVKPGASVKMSCKASGYTFTSYNMHWVKQTPGRGLEWIGAIYPGNGDTSYNQKFKGKATLTADKSSSTAYMQLSSLTSEDSAVYYCARSTYYGGDWYFNVWGAGTTVTVSSASTKGPSVFPLAPSSKSTSGGTAALGCLVKDYFPEPVTVSWNSGALTSGVHTFPAVLQSSGLYSLSSVVTVPSSSLGTQTYICNVNHKPSNTKVDKKVEPKSCDKTHTCPPCPAPEQSRGPSVFLFPPKPKDTLMISRTPEVTCVVVDVSHEDPEVKFNWYVDGVEVHNAKTKPREEQYNSTYRVVSVLTVLHQDWLNGKEYKCKVSNKALPAPIEKTISKAKGQPREPQVYTLPPSRDELTKNQVSLTCLVKGFYPSDIAVEWESNGQPENNYKTTPPVLDSDGSFFLYSKLTVDKSRWQQGNVFSCSVMHEALHNHYTQKSLSLSPGK
light: QIVLSQSPAILSASPGEKVTMTCRASSSVSYIHWFQQKPGSSPKPWIYATSNLASGVPVRFSGSGSGTSYSLTISRVEAEDAATYYCQQWTSNPPTFGGGTKLEIKRTVAAPSVFIFPPSDEQLKSGTASVVCLLNNFYPREAKVQWKVDNALQSGNSQESVTEQDSKDSTYSLSSTLTLSKADYEKHKVYACEVTHQGLSSPVTKSFNRGEC
notes: also called 2-33; 10.77
B4: anti-CD20 human IgG1 L234S/L235T/G236R (antibody)
heavy: QVQLQQPGAELVKPGASVKMSCKASGYTFTSYNMHWVKQTPGRGLEWIGAIYPGNGDTSYNQKFKGKATLTADKSSSTAYMQLSSLTSEDSAVYYCARSTYYGGDWYFNVWGAGTTVTVSSASTKGPSVFPLAPSSKSTSGGTAALGCLVKDYFPEPVTVSWNSGALTSGVHTFPAVLQSSGLYSLSSVVTVPSSSLGTQTYICNVNHKPSNTKVDKKVEPKSCDKTHTCPPCPAPESTRGPSVFLFPPKPKDTLMISRTPEVTCVVVDVSHEDPEVKFNWYVDGVEVHNAKTKPREEQYNSTYRVVSVLTVLHQDWLNGKEYKCKVSNKALPAPIEKTISKAKGQPREPQVYTLPPSRDELTKNQVSLTCLVKGFYPSDIAVEWESNGQPENNYKTTPPVLDSDGSFFLYSKLTVDKSRWQQGNVFSCSVMHEALHNHYTQKSLSLSPGK
light: QIVLSQSPAILSASPGEKVTMTCRASSSVSYIHWFQQKPGSSPKPWIYATSNLASGVPVRFSGSGSGTSYSLTISRVEAEDAATYYCQQWTSNPPTFGGGTKLEIKRTVAAPSVFIFPPSDEQLKSGTASVVCLLNNFYPREAKVQWKVDNALQSGNSQESVTEQDSKDSTYSLSSTLTLSKADYEKHKVYACEVTHQGLSSPVTKSFNRGEC
notes: also called 2-52; 1-150
B5: anti-CD20 human IgG1 N297Q (aglycosyl) (antibody)
heavy: not shown
light: QIVLSQSPAILSASPGEKVTMTCRASSSVSYIHWFQQKPGSSPKPWIYATSNLASGVPVRFSGSGSGTSYSLTISRVEAEDAATYYCQQWTSNPPTFGGGTKLEIKRTVAAPSVFIFPPSDEQLKSGTASVVCLLNNFYPREAKVQWKVDNALQSGNSQESVTEQDSKDSTYSLSSTLTLSKADYEKHKVYACEVTHQGLSSPVTKSFNRGEC
notes: also called 2-67

Experiments:
[1] = target: T1, Histidine-tagged recombinant human FcγRI (CD64) (human, UniProt P12314 16-288, limits assumed); assay: SPR, His-FcγRI captured; CHO-produced; Expt 1 Rep 2;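 also: antibody analyte injected at 100 µg/mL for 1 min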
T1 construct: bought
Experimental: (§1) Methods were run using the manufacturer's standard method wizards as described in the Biacore® T200 Instrument Handbook.
(§2) The cell was activated by treatment with EDC/NHS for 7 min. The antibody was diluted to 10 μg/mL in 10 mM sodium acetate pH 5.0 and injected for 7 min at 5 μL/min. The flow cell was deactivated by injection of 1M ethanolamine for 7 min. This process was repeated in the absence of anti-his antibody on a separate flow cell to generate a reference surface. […] Samples of purified antibodies comprising variant Fc regions (1 mg/mL in PBS) were diluted with running buffer to 100 μg/mL and were injected for 1 min at 30 μL/min and allowed to disassociate for 2 min. Between each cycle, the chip was regenerated by injection of 10 mM glycine pH 3.0 for 0.5 min at a flow rate of 30 μL/min and recharged with a fresh injection of FcγRI. At the beginning of each experiment, three blank cycles were run, with buffer alone being injected instead of test sample. The average SPR signal (relative to the reference cell) was measured in a window approximately 8 to 13 seconds before the injection of test sample (baseline) and approximately 3 to 8 seconds before the end of injection (response). The response of the third of the blank (buffer) samples was subtracted from the response of each test sample in order to allow for any dissociation of the bound FcγRI giving a corrected response for each test sample. The whole experiment was repeated three times with the test samples being analysed in different orders each time. […] This lot was run at the beginning and end of each experiment as a consistency check.

[2] = target: T1, Histidine-tagged recombinant human …; assay: SPR, His-FcγRI captured; mean;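 also: biacore T200 SPR at 25 °C, anti-His surface capturing FcγRI, Fc-variant antibodies injected at 100 µg/mL for 1 min, signal near injection end minus third buffer blank, three repeats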
Experimental: (§3) Binding analysis was carried out by surface plasmon resonance at 25° C. using a Biacore® T200 instrument with Biacore® T200 control software. The sample compartment was held at 5° C. The running buffer (HBS-EP+) consisted of 0.01 M HEPES pH 7.4, containing 0.15 M NaCl, 3 mM EDTA, and 0.05% v/v Surfactant P20. Methods were run using the manufacturer's standard method wizards as described in the Biacore® T200 Instrument Handbook.
(§4) The cell was activated by treatment with EDC/NHS for 7 min. The antibody was diluted to 10 μg/mL in 10 mM sodium acetate pH 5.0 and injected for 7 min at 5 μL/min. The flow cell was deactivated by injection of 1M ethanolamine for 7 min. This process was repeated in the absence of anti-his antibody on a separate flow cell to generate a reference surface. […] Samples of purified antibodies comprising variant Fc regions (1 mg/mL in PBS) were diluted with running buffer to 100 μg/mL and were injected for 1 min at 30 μL/min and allowed to disassociate for 2 min. Between each cycle, the chip was regenerated by injection of 10 mM glycine pH 3.0 for 0.5 min at a flow rate of 30 μL/min and recharged with a fresh injection of FcγRI. At the beginning of each experiment, three blank cycles were run, with buffer alone being injected instead of test sample. The average SPR signal (relative to the reference cell) was measured in a window approximately 8 to 13 seconds before the injection of test sample (baseline) and approximately 3 to 8 seconds before the end of injection (response). The response of the third of the blank (buffer) samples was subtracted from the response of each test sample in order to allow for any dissociation of the bound FcγRI giving a corrected response for each test sample. The whole experiment was repeated three times with the test samples being analysed in different orders each time.

[3] = target: T1, Histidine-tagged recombinant human …; assay: SPR, His-FcγRI captured; CHO-produced; Expt 1 Rep 1;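 also: antibody analyte injected at 100 µg/mL for 1 min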
Experimental: as §1, §2

[4] = target: T1, Histidine-tagged recombinant human …; assay: SPR, His-FcγRI captured; Expt 1 Rep 1;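 also: antibody analyte injected at 100 µg/mL for 1 min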
Experimental: as §1, §2

rabbit FcγRI = target: T2, rabbit FcγRI (rabbit); assay: SPR, receptor captured on anti-His chip
T2 construct: bought; captured on anti-histidine chip

rat FcγRI = target: T3, rat FcγRI (rat, UniProt A0A0B4J2J0 16-285); assay: SPR, receptor captured on anti-His chip
T3 construct: bought; captured on anti-histidine chip
T3 sequence: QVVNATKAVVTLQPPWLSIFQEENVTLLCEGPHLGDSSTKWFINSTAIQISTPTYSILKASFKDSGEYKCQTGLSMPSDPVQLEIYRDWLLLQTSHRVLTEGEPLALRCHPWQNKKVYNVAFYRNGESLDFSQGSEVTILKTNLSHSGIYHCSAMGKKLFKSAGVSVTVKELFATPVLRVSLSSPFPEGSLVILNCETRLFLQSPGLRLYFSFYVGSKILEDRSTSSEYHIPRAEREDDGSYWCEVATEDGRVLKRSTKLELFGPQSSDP

[5] = target: T1, Histidine-tagged recombinant human …; assay: SPR, receptor captured on anti-His chip
mouse FcγRI = target: T4, mouse FcγRI (mouse, UniProt P26151 25-297); assay: SPR, receptor captured on anti-His chip
T4 construct: bought; captured on anti-histidine chip
T4 sequence (looked up): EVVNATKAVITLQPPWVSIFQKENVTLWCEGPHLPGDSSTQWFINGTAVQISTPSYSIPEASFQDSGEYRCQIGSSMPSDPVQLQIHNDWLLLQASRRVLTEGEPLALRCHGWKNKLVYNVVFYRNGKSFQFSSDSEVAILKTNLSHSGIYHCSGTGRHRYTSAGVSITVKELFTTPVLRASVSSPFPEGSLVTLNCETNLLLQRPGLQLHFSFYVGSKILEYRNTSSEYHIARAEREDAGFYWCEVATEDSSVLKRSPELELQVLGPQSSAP

human FcγRIIB = target: T5, human FcγRIIB (human, UniProt P31994 43-217); assay: SPR, receptor captured on anti-His chip
T5 construct: bought
T5 sequence (looked up): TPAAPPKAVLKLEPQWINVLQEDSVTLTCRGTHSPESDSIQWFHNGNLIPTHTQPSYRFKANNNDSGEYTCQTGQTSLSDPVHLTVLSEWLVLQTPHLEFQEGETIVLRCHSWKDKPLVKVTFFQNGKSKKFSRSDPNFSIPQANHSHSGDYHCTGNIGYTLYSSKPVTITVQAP

human FcγRIIA (R131) = target: T6, human FcγRIIA (R131) (human, UniProt P12318 34-218, limits assumed); assay: SPR, receptor captured on anti-His chip
T6 construct: bought; R131 allele
T6 sequence (looked up): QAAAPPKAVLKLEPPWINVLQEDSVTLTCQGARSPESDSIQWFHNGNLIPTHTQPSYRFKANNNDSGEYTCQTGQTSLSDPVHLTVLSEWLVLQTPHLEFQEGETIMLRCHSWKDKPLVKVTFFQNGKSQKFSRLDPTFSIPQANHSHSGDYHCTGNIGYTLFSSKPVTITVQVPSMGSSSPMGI

human FcγRIIIA (F158) [6] = target: T7, human FcγRIIIA (F158) (human, UniProt P08637 17-208); assay: SPR, receptor captured on anti-His chip
T7 construct: bought; F158 allele
T7 sequence (P08637 17-208 limits assumed): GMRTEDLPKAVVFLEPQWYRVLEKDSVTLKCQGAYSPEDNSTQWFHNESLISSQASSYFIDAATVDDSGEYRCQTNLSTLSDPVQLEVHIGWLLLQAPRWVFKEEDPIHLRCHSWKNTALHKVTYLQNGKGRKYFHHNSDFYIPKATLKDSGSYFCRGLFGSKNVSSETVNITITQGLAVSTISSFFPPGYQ

[7] = target: T8, human FcγRIIIB (NA2 allotype) (human, UniProt O75015 17-200, limits assumed); assay: SPR, receptor captured on anti-His chip
T8 construct: bought; NA2 allotype

[8] = target: T1, Histidine-tagged recombinant human …; assay: SPR, His-FcγRI captured; Expt 2;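 also: biacore T200 SPR at 25 °C, Fc-variant antibodies at 100 µg/mL flowed 1 min over anti-His-captured receptor, signal read near injection end minus third buffer blank; antibody analyte injected at 100 µg/mL for 1 min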
[9] = target: T1, Histidine-tagged recombinant human …; assay: SPR, His-FcγRI captured; Expt 1 Rep 2;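 also: antibody analyte injected at 100 µg/mL for 1 min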
Experimental: as §1, §2

human FcRn [10] = target: T9, human FcRn (human, UniProt P55899 24-297; P61769 21-119); assay: SPR pH 6.0, FcRn captured; Expt 1
T9 construct: bought

[11] = target: T1, Histidine-tagged recombinant human …; assay: SPR, His-FcγRI captured; Expt 3;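 also: biacore T200 SPR at 25 °C, Fc-variant antibodies at 100 µg/mL flowed 1 min over anti-His-captured FcγRI, signal taken just before injection end minus a buffer blank cycle; antibody analyte injected at 100 µg/mL for 1 min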
Experimental: as §3, §4

[12] = target: T1, Histidine-tagged recombinant human …; assay: SPR, His-FcγRI captured; CHO-produced; Expt 2 Rep 2;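 also: antibody analyte injected at 100 µg/mL for 1 min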
Experimental: as §1, §2

human FcγRIIIA (F158) [13] = target: T7, human FcγRIIIA (F158); assay: SPR, FcγRIIIA captured; also: test concentration or dose not given here
[14] = target: T1, Histidine-tagged recombinant human …; assay: SPR, His-FcγRI captured; CHO-produced; Expt 2 Rep 1;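 also: antibody analyte injected at 100 µg/mL for 1 min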
Experimental: as §1, §2

human FcRn [15] = target: T9, human FcRn; assay: SPR pH 6.0, FcRn captured; Expt 2
cynomolgus monkey FcRn = target: T10, cynomolgus monkey FcRn (cynomolgus monkey, UniProt Q8SPV9 24-297; Q8SPW0 21-119); assay: SPR pH 6.0, FcRn captured
T10 construct: bought; also called cynomolgus FcRn
Experimental: Samples of purified antibodies comprising variant Fc regions (1 mg/mL in PBS) were diluted with running buffer to 100 μg/mL and were injected for 1 min at 30 μL/min and allowed to disassociate for 2 min. Between each cycle, the chip was regenerated by injection of 10 mM glycine pH 3.0 for 0.5 min at a flow rate of 30 μL/min and recharged with a fresh injection of FcγRI. At the beginning of each experiment, three blank cycles were run, with buffer alone being injected instead of test sample. The average SPR signal (relative to the reference cell) was measured in a window approximately 8 to 13 seconds before the injection of test sample (baseline) and approximately 3 to 8 seconds before the end of injection (response). The response of the third of the blank (buffer) samples was subtracted from the response of each test sample in order to allow for any dissociation of the bound FcγRI giving a corrected response for each test sample. The whole experiment was repeated three times with the test samples being analysed in different orders each time. […] This lot was run at the beginning and end of each experiment as a consistency check.
As before the binding responses were corrected by subtraction of the response given by a blank sample consisting of running buffer alone.

[16] = target: T1, Histidine-tagged recombinant human …; assay: SPR, His-FcγRI captured; Expt 2 Rep 1;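 also: antibody analyte injected at 100 µg/mL for 1 min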
Experimental: as §1, §2

[17] = target: T1, Histidine-tagged recombinant human …; assay: SPR, His-FcγRI captured; Expt 2 Rep 2;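 also: antibody analyte injected at 100 µg/mL for 1 min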
Experimental: as §1, §2

[18] = target: T1, Histidine-tagged recombinant human …; assay: SPR, His-FcγRI captured; Expt 1;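 also: SPR at 25 °C on anti-His antibody chip capturing FcγRI, Fc-variant antibodies injected at 100 µg/mL for 1 min, signal near end of injection minus buffer blank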

Row | Corrected response (RU) [1] | Corrected response (RU), Mean [2] | Corrected response (RU) [3] | Corrected response (RU) [4] | Corrected response (RU) (rabbit FcγRI) | Corrected response (RU) (rat FcγRI) | Corrected response (RU) [5] | Corrected response (RU) (mouse FcγRI) | Corrected response (RU) (human FcγRIIB) | Corrected response (RU) (human FcγRIIA (R131)) | Corrected response (RU) (human FcγRIIIA (F158) [6]) | Corrected response (RU) [7] | Corrected response (RU) [8] | Corrected response (RU) [9] | Corrected response (RU) (human FcRn [10]) | Corrected response (RU) [11] | Corrected response (RU) [12] | Corrected response (RU) (human FcRn [15]) | Corrected response (RU) (cynomolgus monkey FcRn) | Corrected response (RU) [16] | other results | Binder
1 | 2180 RU | 2590 RU | 2120 RU | 2370 RU | 2770 RU | 2220 RU | 3020 RU | 1790 RU | 175 RU | 345 RU | 889 RU | 501 RU | 2570 RU | 2380 RU | 647 RU | 2600 RU | 1390 RU | 650 RU | 1440 RU | 1460 RU | Corrected response (RU) (human FcγRIIIA (F158) [13]): 588 RU; Corrected response (RU) [14]: 1350 RU | B1
2 | – | – | – | 53.4 RU | 5.6 RU | 0.5 RU | 72.9 RU | -0.2 RU | -0.6 RU | 0.9 RU | -0.4 RU | -1.6 RU | – | 40.7 RU | 543 RU | – | – | 557 RU | 1270 RU | 62.4 RU | Corrected response (RU) [17]: 49.5 RU | B2
3 | – | – | – | – | 0.9 RU | 0.6 RU | – | 0.5 RU | – | 1.8 RU | – | 2.3 RU | 1.6 RU | – | 488 RU | 3.8 RU | – | 496 RU | 1170 RU | – | Corrected response (RU) (human FcγRIIIA (F158) [13]): 2.7 RU; Corrected response (RU) [18]: -1.8 RU | B3
4 | -20.7 RU | 0.6 RU | -23.4 RU | -23.8 RU | – | – | – | – | – | – | – | – | 0.3 RU | -12.1 RU | – | – | -8.9 RU | – | – | -1 RU | Corrected response (RU) [14]: -9.2 RU; Corrected response (RU) [18]: -0.5 RU | B4
5 | – | – | – | – | 410 RU | 1470 RU | 578 RU | 49.3 RU | – | 9.4 RU | -1.4 RU | – | – | – | 426 RU | – | – | 430 RU | 1040 RU | – | – | B5
